Results taken from PMC4996978, “A MUB E2 structure reveals E1 selectivity between cognate ubiquitin E2s in eukaryotes” (Nature Communications, 2016).
Where a chain is given by its changes, count along the chain named. Names may count otherwise. Values belong to the binder of their own block, whether it stands above or below them.

What was measured:
[1] = target: T1, biotinylated E2 (Ube2D3) (human, UniProt P61077 1-147, biotin); assay: inhibition of E2 activation (HTRF-FRET E2∼Ub formation assay); 1 nM E1 (HsUBE1), 10 μM Mg-ATP, 50 nM Ub-fluorescein, 0.9 nM streptavidin-terbium, 5 nM biotinylated Ube2D3; 50 mM Tris-HCl pH 7.5, 5 mM MgCl2, 0.05% CHAPS; HsMUB pre-incubated with E2 for 15 min; initial velocity against HsMUB concentration fit to a one-site binding model; IC50 equivalent to Ki; settings: both partners purified
T1 construct: human ubiquitin-conjugating enzyme E2 D3 (Ube2D3), biotinylated, labelled with streptavidin-terbium in the assay; source: reagents adapted from the E1/E2 Lite kit (LifeSensors, Malvern, PA)

[2] = target: T2, GST-AtUBC8 (Arabidopsis thaliana, UniProt P35131 1-148); assay: pull-down; GST-AtUBC8 immobilized on GSH resin; equimolar His-tagged AtMUB3, AtMUB3 mutants and Ub incubated separately for 15 min; washed three times with sonication buffer (50 mM Tris-HCl pH 7.5, 300 mM NaCl, 10% glycerol, 10 mM imidazole); immunoblot; settings: both partners purified
T2 construct: Arabidopsis thaliana ubiquitin-conjugating enzyme E2 8 (AtUBC8); also called GST-tagged AtUBC8; source: E. coli Rosetta 2 (DE3) pLacI, soluble extract fraction immobilized on GSH resin and washed
T2 sequence (P35131 whole entry): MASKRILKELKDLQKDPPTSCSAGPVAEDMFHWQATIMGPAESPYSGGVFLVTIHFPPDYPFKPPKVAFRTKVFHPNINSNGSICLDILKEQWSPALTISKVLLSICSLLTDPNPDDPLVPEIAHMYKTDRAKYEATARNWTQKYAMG

T1 sequence (P61077 whole entry): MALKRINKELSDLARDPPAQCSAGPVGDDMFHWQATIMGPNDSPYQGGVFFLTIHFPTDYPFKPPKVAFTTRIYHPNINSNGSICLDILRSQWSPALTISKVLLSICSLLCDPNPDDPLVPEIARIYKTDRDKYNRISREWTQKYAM

- Ki [1]: 220 ± 16 nM
B1: HsMUB (natural protein, human, UniProt O95164 1-117, looked up)
chain: MSSNVPADMINLRLILVSGKTKEFLFSPNDSASDIAKHVYDNWPMDWEEEQVSSPNILRLIYQGRFLHGNVTLGALKLPFGKTTVMHLVARETLPEPNSQGQRNREKTGESNCCVIL
notes: Homo sapiens membrane-anchored ubiquitin-fold protein (HsMUB); coding region cloned without stop codon into pET28b; also called human homologue of MUB; source: E. coli Rosetta 2 (DE3) pLacI, purified

- binding result [2]: binds
B2: AtMUB3-His (natural protein, Arabidopsis thaliana, UniProt Q9SW27 1-118, looked up)
chain: MPEEESIDIKFRLYDGSDIGPFRYSAASTVDFLKQRVVSDWPKGKTVVPKGINEVKLISSGKILENNKTVGQCKTPFGDIAGGVIVMHVVVQPSLAKSKTEKKVDKAPKAVICTCTIL
notes: coding region cloned without stop codon into pET28b; also called His-tagged AtMUB3; not shown: His6, C-terminal, kept

- binding result [2]: binds
B3: AtMUB3 P76A F77A G78A D79A I80A (All A) (natural protein, Arabidopsis thaliana)
chain: B2 chain with P76A, F77A, G78A, D79A, I80A
notes: Generated by bridging-PCR and cloned into pET28b; also called AtMUB3 All A LBL mutant; AtMUB3 with the core LBL residues ProPheGlyAspIle all converted to alanines
